The record followed here is paper PMC10312659.

In this test the target is Polyketide synthase 13 (Pks13) of Mycobacterium smegmatis, endogenous, with native substrates bound (Mycobacterium smegmatis) (UniProt A0R617). In words: SEC. (In general: Size exclusion chromatography separates by hydrodynamic size, large species first.)

As usually defined, the stoichiometry N is a count of units in the complex or per binding partner. On to “Polyketide synthase 13 (Pks13) of Mycobacterium smegmatis, endogenous, with native substrates bound (from UniProt A0R617 1-1816) (enzyme)”, for which the stoichiometry N was 4.
